{"source": "patent US20190330359A1", "target": "TNFR2 (human TNFR2, SEQ ID NO: 1) (human) (UniProt P20333)", "sequence (P20333 23-257 limits assumed)": "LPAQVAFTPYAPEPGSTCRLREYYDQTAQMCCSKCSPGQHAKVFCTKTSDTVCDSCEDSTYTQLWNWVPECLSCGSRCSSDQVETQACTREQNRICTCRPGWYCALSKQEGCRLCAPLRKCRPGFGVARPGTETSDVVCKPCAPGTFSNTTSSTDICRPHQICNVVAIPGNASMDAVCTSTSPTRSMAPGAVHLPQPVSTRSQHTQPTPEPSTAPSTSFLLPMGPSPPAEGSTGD", "assay": "surface plasmon resonance (Pioneer SensiQ)", "data": [{"substance": "Clone MAB726 (R&D Systems, Inc.) anti-TNFR2 antagonist monoclonal antibody", "values": [{"measurement": "Kd", "value": 0.621, "unit": "nM"}]}]}
